Experimental data from US20140348857A1, “METHODS OF DIAGNOSIS AND TREATMENT OF ENDOPLASMIC RETICULUM (ER) STRESS-RELATED CONDITIONS” (MASSACHUSETTS INSTITUTE OF TECHNOLOGY, priority 2011, published 2014).
Changes are numbered by the printed parent chain. Names may count otherwise.

Tests used:
PARP-16 = biological target: T1, PARP-16 (Homo sapiens, UniProt Q8N5Y8); test: 32P-NAD+ incorporation assay with recombinant GST-PARP-16 (self-modification); type: biochemical; details: of wild-type GST-PARP-16; purified from E. coli
T1 construct: Asterisk=full-length proteins; made in house; host or cells: E. coli BL21 RIPL
T1 sequence (Q8N5Y8 1-322): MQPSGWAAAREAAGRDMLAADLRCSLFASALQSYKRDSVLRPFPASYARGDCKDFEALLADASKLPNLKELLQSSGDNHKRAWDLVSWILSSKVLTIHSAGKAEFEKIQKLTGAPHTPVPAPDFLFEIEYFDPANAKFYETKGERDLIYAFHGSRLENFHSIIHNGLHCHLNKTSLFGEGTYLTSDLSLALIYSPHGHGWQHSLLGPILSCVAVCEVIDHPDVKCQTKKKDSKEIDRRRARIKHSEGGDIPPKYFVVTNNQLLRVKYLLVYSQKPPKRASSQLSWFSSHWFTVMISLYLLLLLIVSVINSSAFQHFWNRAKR
Excerpt: Human PARP-16 (ADP-ribosyl)ates itself and contains histidine and tyrosine residues at amino acid 152 and 182 within its catalytic domain, residues thought to be critical for enzymatic activity (FIG. 1B) (Kleine et al., Mol. Cell 32: 57-69, 2008). To determine if these residues are required for enzymatic activity, GST-PARP-16 and GST-PARP-16^H152Q Y182A were expressed and purified in E. coli, and ^32P-NAD^+ incorporation assays performed.
(§1) For ER microsome-based assays including NAD^+ incorporation and immunoprecipitation, ER microsomes were fractionated from HeLa cells via isopycnic flotation method as described in Stephens et al., Methods Mol Biol. 419: 197-214, 2008, and incubated with 100 μM β-NAD^+ (MP Biomedicals) and 2.5 μCi of ^32P-NAD^+ (Perkin Elmer) in a PARP reaction buffer (50 mM HEPES pH 7.4, 150 mM NaCl, 1 mM MgCl2, 10 mM EGTA, 1 mM DTT, 0.1 mM Na3VO4, 50 mM NaF, 5 mM β-glycerophosphate, 1 μM ADP-HPD, and protease inhibitor cocktail) at 25° C. for 30 min. The ratio between unlabeled and labeled NAD^+ was kept constant upon titration of NAD^+ concentration. The ^32P-labeled ER microsomes were then lysed by addition of Triton X-100 at 1%. Proteins were immunoprecipitated, eluted in a 1× Laemmli sample buffer by boiling at 65° C. for 10 min, and then analyzed using autoradiogram and immunoblotting. […]

PERK = test: NAD+ incorporation assay with ER microsome-purified PERK and recombinant GST-PARP-16; type: biochemical, human; details: PERK purified from ER microsomes of unstressed PARP-16 knockdown cells
Excerpt: We examined NAD^+ incorporation onto GFP-PERK or GFP-IRE1α via EMAA in cells transfected with control or PARP-16 siRNA, treated with or without ER stress inducing drugs. Low level (ADP-ribosyl)ation of GFP-PERK and GFP-IRE1α was detected in control knock-down cells in the absence of drug (FIGS. 6C and 6D), likely due to the previously described UPR induction upon PERK or IRE1α expression (Bertolotti et al., Nat. Cell Biol. 2: 326-332, 2000; Kimata et al., Curr. Opin. Cell Biol. 23: 135-142, 2011).
as §1

GFP-PERK = test: PERK kinase assay after (ADP-ribosyl)ation of ER microsomes by GST-PARP-16; type: biochemical, human; details: versus GST-PARP-16 samples; depending on NAD concentration
Protocol: We examined PERK and IRE1α kinase activity in response to (ADP-ribosyl)ation by PARP-16 via self-phosphorylation assays. ER microsomes purified from GFP-PERK- or GFP-IRE1α-expressing cells were washed with 1M NaCl to remove bound PARP-16, returned to physiological salt buffer, split into duplicate reactions, and incubated with unlabeled NAD^+ plus either GST-PARP-16 or GST-PARP-16^H152Q Y182A, or ^32P-NAD^+ plus either recombinant protein. (ADP-ribosyl)ated GFP-PERK or GFP-IRE1α were extracted from the microsomes and purified under 1 M NaCl conditions to remove added recombinant PARP-16 proteins. Reactions containing unlabeled NAD^+ were incubated with ^32P-ATP, and reactions containing ^32P-NAD^+ were incubated with unlabeled ATP. […] Phosphorylation by GFP-IRE1α at the molecular weight of GST-PARP-16 and GST-PARP16^H152Q Y182A was also detected (FIG. 7E).
PERK and IRE1α kinase assays were performed as described herein. […] Proteins were immunoprecipitated, eluted in 1× Laemmli sample buffer by heating at 65° C. for 10 min, and then analyzed using autoradiogram and immunoblotting.

32P-NAD+ incorporation activity relative to wild-type (PARP-16): ~6% | reduction of phosphorylation by PERK at the molecular weight of GST-PARP-16 (GFP-PERK): 5-10 fold
B1: GST-PARP-16^H152Q Y182A: recombinant GST-PARP-16 catalytically inactive mutant, His152 and Tyr182 mutated, purified in E. coli (protein, UniProt Q8N5Y8 1-322, looked up, variant H152Q Y182A)
Protein …: T1 sequence (Q8N5Y8 1-322) with H152Q, Y182A
modifications: GST fusion
ADP-ribosylation of PERK (PERK): not
